Biological target: Gal4-DNA binding domain fusion with PGC-1α (yeast) (UniProt P04386)
Experiment: cell-based or functional assay

transactivation of the UAS-Firefly Luciferase reporter by gal4-pgc1α: 200 fold
Substance: PRDM16 expressed from pcDNA-Prdm16 plasmid in cos7 cells (from UniProt A2A935 1-1275)

From patent publication US20110059051A1
